Reference: patent US6936431 (dated 2005)
Several values for one entry are separate records, joined by “and”; a condition that tells them apart may be missing. Equal entries are not always repeated. Where two headings read alike, the source gives them in different places.

Legend:
[1] = target: T1, rat brain farnesyl:protein transferase (rat, UniProt Q04631 2-377; Q02293 1-437); assay: farnesyltransferase activity inhibition; FIG. 12B
[2] = target: T1, rat brain farnesyl:protein transferase; assay: farnesyltransferase activity inhibition; FIG. 12A
[3] = target: T1, rat brain farnesyl:protein transferase; assay: farnesyltransferase activity inhibition; FIG. 10B
[4] = target: T1, rat brain farnesyl:protein transferase; assay: farnesyltransferase activity inhibition; FIG. 10C
[5] = target: T1, rat brain farnesyl:protein transferase; assay: farnesyltransferase activity inhibition; FIG. 10A
[6] = target: T1, rat brain farnesyl:protein transferase; assay: farnesyltransferase activity inhibition; FIG. 11
[7] = target: T1, rat brain farnesyl:protein transferase

Which results are given for CVFM?
Ki [1]: 35 nM; Ki [2]: 10 nM

With CVKM [CVIM with lysine at the A2 position (CVKM)] as the binder, how does the Ki [3] read?
Its Ki is over 30000 nM.

How did the Ki [4] turn out when CLIM was run?
The Ki was 80 nM.

With CVIA [CVIA (COOH-terminal tetrapeptide of a-Mating factor)] as the binder, how does the Ki [5] read?
The Ki was 4000 nM.

For CVLM, which Ki [4] is on record?
The Ki was 200 nM.

Which Ki [4] does the source give for CVIL [CVIL (COOH-terminal tetrapeptide of rap2b)] here?
The Ki was 10500 nM.

For CVAM, which Ki [5] is on record?
The Ki was 6000 nM.

Which Ki [3] does the source give for CVIK [CVIM with lysine at the X position (CVIK)] here?
Its Ki is over 30000 nM.

For CFIM, which Ki [6] is on record?
The Ki was 500 nM.

For CVIM [CVIM (COOH-terminal tetrapeptide of p21^K-rasB)], which Ki [7] is on record?
The Ki was 350 nM and 200 nM.
